# Where a chain is given by its changes, count along the chain named.
# T1: GCGR extracellular domain alanine mutant F62A (human, UniProt P47871 26-136, limits assumed)
# T1 construct: expressed in 293XP cells
# T1 chain: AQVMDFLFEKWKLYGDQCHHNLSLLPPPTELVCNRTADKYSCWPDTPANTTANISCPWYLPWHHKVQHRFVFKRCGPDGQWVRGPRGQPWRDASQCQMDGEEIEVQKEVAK
# T2: GCGR extracellular domain alanine mutant Y65A (human, UniProt P47871 26-136, limits assumed)
# T2 construct: expressed in 293XP cells
# T2 chain: T1 chain with A37F, Y40A
# B1: anti-GCGR antibody Hz6B5 (antibody, V domains shown)
# VH: QVQLVQSGAEVKKPGSSVKVSCKASGFTFTNHWLGWVRQAPGQGLEWIGDIYPGGYYINYNEKFKGRVTITADESTSTAYMELSSLRSEDTAVYYCARHTNYGSDYWGQGTTVTVSS
# VL: DVVMTQSPLSLPVTLGQPASISCRSSQSIVDSYGNTFLEWYQQRPGQSPRLLIYKVSNRLSGVPDRFSGSGSGTDFTLKISRVEAEDVGVYYCFQGSHVPWTFGQGTKLEIK
# notes: Humanized 6B5
# What was measured:
# [1] = target: T1, GCGR extracellular domain alanine …; experiment: flow cytometry on transfected 293XP cells
# Procedure: (§1) To assist in gathering information on the GCGR epitope that the 6B5 binning group bound to, “alanine scanning mutagenesis” was undertaken. These alanine scanning mutagenesis platform is a technique used for mapping both linear and conformational antigen epitopes by evaluating the effects of point mutations across a target protein. Single residues in a target protein are replaced by alanine one at a time to construct a mutant library. Each variant is assayed for its ability to bind to an antibody of interest. […] Amino acids across the extracellular domain of GCGR were mutated to alanine and the anti-GCGR antibody Hz6B5 was tested for binding to the alanine mutants.
# (§2) The wild-type GCGR extracellular domain and the alanine mutants were each transfected into 293XP cells and incubated for 24 hours. Antibody Hz6B5 was incubated with the transfected cells for 30 minutes at 4° C. After washing with PBS/1% BSA/0.1% azide, the cells were incubated with a labeled anti-mouse Fc antibody (Jackson Immunoresearch) for 30 minutes at 4° C. After washing with PBS/1% BSA/0.1% azide, the cells were analyzed using a flow cytometer BD (FACSCalibur instrument) and cytometric analytical software (FlowJo). A serum sample from a mouse immunized with human GCGR was used as positive control to confirm expression of the alanine mutants.
# [2] = target: T2, GCGR extracellular domain alanine …; experiment: flow cytometry on transfected 293XP cells
# Procedure: as §1, §2
binder,measurement,setting,value
B1,% positive cells,[1],62.8%
same,% positive cells,[2],64.8%
